# In US20250163136A1 (FRAUNHOFER GESELLSCHAFT ZUR F RDERUNG DER ANGEWANDTEN …, published 2025):
# Numbered stars: 1 amine (or outer) side, 2 acyl side, 3 side chain; on linkers, the order of the positions; unused ones are H or OH. Square brackets hold non-standard residues; d marks the D form. * marks the point of attachment. Biotin = O=C1N[C@H]2[C@H](CS[C@H]2CCCCC(=O)*)N1; βAsp = O=C(O)[C@H](CC(=O)[*:2])N[*:1]; PEG = not defined here
# T1: TTR(35-43)-PEG-Biotin (human, reading uncertain)
# T1 construct: also called non-modified peptide TTR(35-43)
# T1 peptide: {Biotin-PEG}-KAADDTWEP-NH2
# T2: isoD38-TTR(35-43)-PEG-Biotin (human, reading uncertain)
# T2 construct: KAAXDTWEP; also called isoaspartate-containing TTR(35-43)-peptide
# T2 peptide: {Biotin-PEG}-KAA[βAsp]DTWEP-NH2
# Assays:
# [1] = target: T3, aggregated Aβ(1-42) with confirmed isoAsp-content (isoD7-Aβ(1-42)) (X at position 7 is L-isoAsp); assay: dot blot
# T3 construct: Aggregated amyloid fibrils; dot blot lanes 8 and 9 (with m11); also called isoD7-AB; aggregated Aβ1-42 (verified isoD content)
# T3 sequence (peptide, as listed by the source): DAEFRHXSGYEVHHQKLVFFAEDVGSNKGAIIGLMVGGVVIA
# Procedure: (§1) 0.5 μg of recombinantly expressed TTR proteins (TTRwt (SEQ ID NO: 1), TTR-V30M (SEQ ID NO: 7), or TTR-V122I (SEQ ID NO: 8)), ATTR fibrils or 0.5 μg of either freshly dissolved Aβ(1-42) (SEQ ID NO: 9) or aggregated Aβ(1-42) with confirmed isoAsp-content (SEQ ID NO: 10) were spotted on nitrocellulose membranes. Membranes were blocked for 1 hour in blocking solution (5% (w/v) milk powder in TBS+0.05% (v/v) Tween-20 (Carl Roth)). […] Alkaline phosphatase-conjugated, anti-mouse or rabbit IgG antibodies (abeam) in combination with chromogenic substrates BCIP and NBT (Carl Roth) were subsequently used for detection.
# [2] = target: T4, freshly dissolved Aβ(1-42); assay: dot blot
# T4 construct: Dot blot lanes 8 and 9 (with m12); also called monomeric peptides of Aβ
# T4 sequence (peptide, as listed by the source): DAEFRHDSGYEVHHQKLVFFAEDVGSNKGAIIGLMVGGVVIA
# Procedure: as §1
# [3] = target: T1, TTR(35-43)-PEG-Biotin; assay: SPR, BIAcore 3000, 25 °C; antibody captured on goat anti-mouse IgG (CM5 chip), peptide injected (multicycle kinetics, 1 µM to 200 µM)
# Procedure: (§2) Antibody binding kinetics to TTR(35-43)-PEG-Biotin (SEQ ID NO: 5) and isoD38-TTR(35-43)-PEG-Biotin (SEQ ID NO: 6) were analyzed by using SPR on a BIAcore 3000 device at 25° C. For this purpose, the surface of a CM5 sensor chip (Cytiva) was modified with a goat anti-mouse antibody using NHS/EDC chemistry. To immobilize the anti-mouse IgG, the carboxymethylated dextran surface of the sensor chip was activated by mixing 0.1 M N-hydroxysuccinimide (NHS) with 0.4 M N-ethyl-N′-(dimethylaminopropyl) carbodiimide hydrochloride (EDC) 1:1. EDC/NHS was applied to the sensor chip with a flow rate of 20 μL/min for 7 minutes. Goat anti-mouse IgG was diluted to 50 μg/mL in 10 mM sodium acetate, pH 5.5, and injected for 2×4 minutes contact time with a flow rate of 30 μL/min. Deactivation was done by applying 1 M ethanolamine pH 8.5 with a flow rate of 10 μL/min for 2×7 minutes contact time. About 20000 RU of the goat anti-mouse antibody were immobilized onto the chip surface.
# [4] = target: T2, isoD38-TTR(35-43)-PEG-Biotin; assay: SPR, BIAcore 3000, 25 °C; antibody captured on goat anti-mouse IgG (CM5 chip), peptide injected (multicycle kinetics, 10 nM to 100 µM)
# Procedure: as §2
# [5] = target: T2, isoD38-TTR(35-43)-PEG-Biotin; assay: SPR, BIAcore 3000, 25 °C; antibody captured on goat anti-mouse IgG (CM5 chip), peptide injected (five consecutive injections, 2 nM to 512 nM)
# Procedure: as §2
# [6] = target: T1, TTR(35-43)-PEG-Biotin; assay: SPR, BIAcore 3000, 25 °C; antibody captured on goat anti-mouse IgG (CM5 chip), peptide injected (five consecutive injections, 512 nM to 131 µM)
# Procedure: as §2
Kd [3],Kd [4],Kd [5],Kd [6],Binder,binding result [1],binding result [2]
29000 nM,124 nM,–,–,"monoclonal antibody 4D4 (antibody, V domains shown, also called isoD38-TTR-specific antibody 4D4; TTR mAb 4D4) VH: QVQLQQSGAELMKPGASVKISCKAPGNTFSSRWIEWVKERPGHGLEWIGEIFPGNGNTNYNEKFKGKATFTADTSSNTAYIQFSSLASEDSGVYYCVSEDYWGQGTLVTVSS VL: DIQMTQSPASLSASVGETVTITCRTSGNIRNSLAWYRQKQGKSPQLLVFNGKTLADGVPSRFSGSGSGTQYSLKINSLQPEDLGTYYCQHFWNIPFTFGSGTKLEIKR",no binding (tested: 0.5 µg peptide spotted; antibody 1 µg/mL),no binding (tested: 0.5 µg peptide spotted; antibody 1 µg/mL)
–,–,1.55 nM,719 nM,"monoclonal antibody 2F2 (antibody, V domains shown, also called isoD38-TTR-specific antibody 2F2; TTR mAb 2F2) VH: DVQLVESGGGLVQPGGSRKLSCAASGFTFSSFAMHWVRQAPDKGLEWVAFISSGSNTIYYADTVKGRFTVSRDNPKNTLFLQMTSLRSEDTAMYYCASNSYYGMDYWGQGTSVTVSS VL: NIMMTQSPSSLAVSAGEKVTMSCKSSQSVLYSSNQKNYLAWYQQKPGQSPKLLIYWASTRESGVPDRFTGSGSGTDFTLTISSVQAEDLAVYYCHQYLSSRTFGAGTKLELKR",no binding (tested: 0.5 µg peptide spotted; antibody 1 µg/mL),no binding (tested: 0.5 µg peptide spotted; antibody 1 µg/mL)
